What was measured:
CD16b (human) = CD16b (human) (UniProt O75015); assay: FACS
CD16a (human) = CD16a (human) (UniProt P08637); assay: FACS
Sequence of CD16a (human) (P08637 17-254): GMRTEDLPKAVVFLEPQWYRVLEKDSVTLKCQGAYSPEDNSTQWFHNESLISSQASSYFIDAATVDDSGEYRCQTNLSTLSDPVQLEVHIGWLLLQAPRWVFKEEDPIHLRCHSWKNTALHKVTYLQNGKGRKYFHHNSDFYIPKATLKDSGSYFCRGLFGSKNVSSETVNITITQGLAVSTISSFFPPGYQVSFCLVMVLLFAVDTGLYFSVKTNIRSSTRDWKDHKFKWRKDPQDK

Sequence of CD16b (human) (O75015 17-200): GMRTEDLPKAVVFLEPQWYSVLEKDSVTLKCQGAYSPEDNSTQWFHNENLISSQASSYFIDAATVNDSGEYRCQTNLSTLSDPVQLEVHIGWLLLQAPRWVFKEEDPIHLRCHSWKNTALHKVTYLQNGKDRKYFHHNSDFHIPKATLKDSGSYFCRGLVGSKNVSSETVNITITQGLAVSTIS

Row | EC50 (CD16b (human)) | EC50 (CD16a (human)) | Substance
1 | 401 µM | – | CD16A-mIgG1
2 | 1440 µM | 1950 µM | mouse IgG
